B1: AceKMs (Mycolicibacterium smegmatis MC2 155) (protein)
chain: MTVLVVNSGSSSLKYAVVRPASGEFLADGIIEEIGSGAVPDHDAALRAAFDELAAAGLHLEDLDLKAVGHRMVHGGKTFYKPSVVDDELIAKARELSPLAPLHNPPAIKGIEVARKLLPDLPHIAVFDTAFFHDLPAPASTYAIDRELAETWHIKRYGFHGTSHEYVSQQAAIFLDRPLESLNQIVLHLGNGASASAVAGGKAVDTSMGLTPMEGLVMGTRSGDIDPGVIMYLWRTAGMSVDDIESMLNRRSGVLGLGGASDFRKLRELIESGDEHAKLAYDVYIHRLRKYIGAYMAVLGRTDVISFTAGVGENVPPVRRDALAGLGGLGIEIDDALNSAKSDEPRLISTPDSRVTVLVVPTNEELAIARACVGVV
notes: recombinant, His-tagged (pDEST17 or pETCC2), E. coli
B2: GlpKCb (Clostridium beijerinckii NCIMB 8052) (protein)
chain: MKKYILALDQGTTSSRAIIFDKEQNILGVSQKEFTQIYPNQGWVEHNPLEIWASQYGVLQEVIAKTNITQEEVAAIGITNQRETTIVWDKNTGEPVYNAIVWQCRRTAGIIEELKLDKEFSEYVKENTGLLLDAYFSATKIKWILDNVEGARERAEKGELLFGTVDTWLVWKLTNGKVHVTDYTNASRTMLYNIKELRWDERILEKLNIPKSMLPEVKNSSEVYGYTNLGGTGGVRVPIAGMAGDQQCALFGQTCFEEGSVKNTYGTGCFLLMNTGEKMIHSKNGLVSTIAVGIDGKVQYALEGSVFVGGAVIQWIRDELKLVTDAADTEYFAQKVEDNGGVYVVPAFTGLGAPYWDMYARGAIFGLTRGANRNHIIRAALESIAYQSKDLIDAMQEDAGCKLTRLKVDGGASRNNLLMQFQADITGAEVVRPIITETTALGAAYLAGLAVGFWKSKEEIAEKWAVSQSYSPNLAEEKKEKLYKGWKKAVKRAEGWEEE
notes: recombinant, His-tagged (pDEST17 or pETCC2), E. coli, Ni and size exclusion purified

Tests used:
Test in all cases: purified protein
[1] = substrate: CC(=O)OP(=O)(O)O; type: biochemical, Mycolicibacterium smegmatis; conditions: ADP in excess, Mg2+, room temperature, buffer as for glycerol kinase (pH 9.2)
Description: (§1) HPLC of ADP and ATP on AceKMs

[2] = substrate: Nc1ncnc2c1ncn2[C@@H]1O[C@H](COP(=O)(O)OP(=O)(O)O)[C@@H](O)[C@H]1O; type: biochemical, Mycolicibacterium smegmatis; conditions: acetyl phosphate in excess, Mg2+, room temperature, buffer as for glycerol kinase (pH 9.2)
Description: as §1

[3] = substrate: Nc1ncnc2c1ncn2[C@@H]1O[C@H](COP(=O)(O)OP(=O)(O)OP(=O)(O)O)[C@@H](O)[C@H]1O; type: biochemical, Clostridium beijerinckii; conditions: glycerol in excess, 10 mM MgCl2, 50 mM NaHCO3 pH 9.2, room temperature
Description: (§2) HPLC of ADP and ATP on GlpKCb

[4] = substrate: OCC(O)CO; type: biochemical, Clostridium beijerinckii; conditions: ATP in excess, 10 mM MgCl2, 50 mM NaHCO3 pH 9.2, room temperature
Description: as §2

Protein	Km [1] [µM]	kcat [1] [s⁻¹]	kcat/Km [1] [M⁻¹ s⁻¹]	Km [2] [µM]	kcat [2] [s⁻¹]	kcat/Km [2] [M⁻¹ s⁻¹]	Km [3] [µM]	kcat [3] [s⁻¹]	kcat/Km [3] [M⁻¹ s⁻¹]	Km [4] [µM]	kcat [4] [s⁻¹]	kcat/Km [4] [M⁻¹ s⁻¹]
B1	390 ± 8	1103	2.8e+06	113 ± 9	1100	9.8e+06						
B2							135 ± 16	93	690000	356 ± 27	93	260000
